In the supplement of paper PMC9876800:

Test system: peptide library, one residue held at a place counted from the S/T acceptor
Assay: relative phosphorylation of the sub-library (ratio to the mean residue at this position); human; higher = residue favoured
In short: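 Purified recombinant kinases, either human or orthologue constructs, were incubated in 384-well plates with biotinylated degenerate peptide sub-libraries. Each sub-library fixed one residue at one position around a central Ser/Thr. Peptides at 50 μM and 50 μM ATP spiked with γ-32P-ATP were used for 90 min under kinase-specific conditions, and spots on streptavidin membranes were phosphorimaged and quantified by densitometry. Relative sub-library phosphorylation is expressed as a ratio to the mean residue at that position.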

SGK3, construct: aa119-end, sequence (Q96BR1 119-496, looked up): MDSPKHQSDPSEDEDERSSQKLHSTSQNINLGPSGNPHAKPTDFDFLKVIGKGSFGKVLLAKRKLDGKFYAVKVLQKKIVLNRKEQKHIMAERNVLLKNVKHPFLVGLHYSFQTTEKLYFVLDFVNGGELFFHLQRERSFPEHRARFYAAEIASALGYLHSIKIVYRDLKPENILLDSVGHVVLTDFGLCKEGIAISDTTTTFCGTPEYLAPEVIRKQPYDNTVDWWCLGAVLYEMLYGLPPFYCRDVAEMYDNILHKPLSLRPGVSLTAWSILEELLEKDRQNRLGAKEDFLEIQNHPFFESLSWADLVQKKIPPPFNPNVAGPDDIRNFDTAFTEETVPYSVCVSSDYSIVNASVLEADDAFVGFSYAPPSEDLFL
RPS6KA6, construct: Full length, sequence (Q9UK32 whole entry, looked up): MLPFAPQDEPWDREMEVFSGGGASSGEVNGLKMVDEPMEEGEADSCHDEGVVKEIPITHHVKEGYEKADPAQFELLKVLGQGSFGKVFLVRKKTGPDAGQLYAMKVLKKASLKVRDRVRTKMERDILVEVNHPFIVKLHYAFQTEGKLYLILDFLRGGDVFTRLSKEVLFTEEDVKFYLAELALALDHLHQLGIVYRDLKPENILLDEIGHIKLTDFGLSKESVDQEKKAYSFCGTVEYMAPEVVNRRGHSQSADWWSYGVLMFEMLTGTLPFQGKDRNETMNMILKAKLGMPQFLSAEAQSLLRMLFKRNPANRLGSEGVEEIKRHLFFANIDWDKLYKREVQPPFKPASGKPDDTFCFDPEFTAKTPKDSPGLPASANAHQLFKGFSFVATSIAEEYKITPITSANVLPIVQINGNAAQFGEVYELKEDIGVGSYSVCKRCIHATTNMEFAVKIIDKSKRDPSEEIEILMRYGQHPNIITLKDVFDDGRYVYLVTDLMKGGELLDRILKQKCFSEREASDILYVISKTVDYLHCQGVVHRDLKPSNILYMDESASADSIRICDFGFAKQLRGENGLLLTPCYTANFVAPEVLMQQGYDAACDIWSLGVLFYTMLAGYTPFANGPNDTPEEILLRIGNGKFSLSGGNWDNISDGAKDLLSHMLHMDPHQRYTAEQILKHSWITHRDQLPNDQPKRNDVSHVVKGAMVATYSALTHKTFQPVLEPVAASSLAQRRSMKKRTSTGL

RPS6KA6, construct: Full length (from UniProt Q9UK32)
relative phosphorylation
Settings | at +1 | at +2 | at +3 | at +4 | at -1 | at -2 | at -3 | at -4 | at -5
A fixed | 0.637 | 0.911 | 0.754 | 0.964 | 0.769 | 0.556 | 0.382 | 0.988 | 0.874
D fixed | 0.481 | 1.09 | 1.24 | 1.3 | 0.622 | 0.544 | 0.444 | 0.785 | 0.613
E fixed | 1.44 | 0.799 | 1.65 | 1.36 | 0.635 | 0.549 | 0.417 | 0.96 | 0.608
F fixed | 1.16 | 0.623 | 0.837 | 0.671 | 0.525 | 0.463 | 0.251 | 0.582 | 0.7
G fixed | 0.574 | 0.967 | 1.23 | 1.37 | 1.1 | 0.812 | 0.527 | 1.13 | 0.932
H fixed | 0.943 | 2.06 | 1.29 | 1.12 | 0.934 | 1.04 | 0.564 | 0.915 | 1
I fixed | 1.49 | 0.54 | 0.708 | 0.609 | 0.262 | 0.364 | 0.205 | 0.479 | 0.433
K fixed | 1.14 | 0.761 | 1.12 | 1.03 | 2.1 | 2.65 | 1.75 | 1.95 | 2.56
L fixed | 1.1 | 0.498 | 0.815 | 0.648 | 0.657 | 1.01 | 0.245 | 0.563 | 0.539
M fixed | 1.08 | 0.594 | 0.717 | 0.82 | 0.863 | 0.522 | 0.314 | 0.8 | 0.545
N fixed | 0.986 | 1.13 | 1.1 | 1.04 | 1.49 | 0.675 | 0.541 | 0.822 | 0.687
P fixed | 0.407 | 0.498 | 0.699 | 1.66 | 2.81 | 0.914 | 1.11 | 1.49 | 0.755
Q fixed | 1.17 | 0.724 | 1.08 | 1.04 | 1 | 0.644 | 0.548 | 0.917 | 0.657
R fixed | 0.949 | 1.31 | 1.01 | 0.906 | 1.53 | 5.3 | 8.88 | 2.69 | 4.15
V fixed | 1.78 | 0.575 | 0.696 | 0.625 | 0.36 | 0.265 | 0.208 | 0.568 | 0.538
W fixed | 0.716 | 1.58 | 0.975 | 1.03 | 0.468 | 0.27 | 0.286 | 0.681 | 0.705
Y fixed | 0.948 | 2.34 | 1.07 | 0.81 | 0.872 | 0.424 | 0.325 | 0.676 | 0.697
pThr fixed | 2.29 | 1.05 | 1.56 | 2.31 | 0.471 | 0.51 | 0.399 | 0.692 | 0.543
pTyr fixed | 1.69 | 1.18 | 1.86 | 1.37 | 0.705 | 0.517 | 0.442 | 0.645 | 0.647

SGK3, construct: aa119-end (from UniProt Q96BR1)
relative phosphorylation
Settings | at +1 | at +2 | at +3 | at +4 | at -1 | at -2 | at -3 | at -4 | at -5
A fixed | 0.678 | 1.24 | 1.05 | 1.13 | 1.04 | 1.27 | 0.733 | 1.07 | 1.07
D fixed | 0.294 | 0.423 | 0.901 | 0.91 | 0.498 | 0.2 | 0.186 | 0.53 | 0.497
E fixed | 0.369 | 0.236 | 1.05 | 0.892 | 0.462 | 0.194 | 0.21 | 0.661 | 0.509
F fixed | 2.98 | 0.836 | 1.09 | 0.843 | 0.672 | 0.609 | 0.352 | 0.749 | 0.836
G fixed | 0.575 | 0.701 | 1.21 | 1.24 | 1.77 | 0.992 | 0.663 | 1.23 | 1.18
H fixed | 0.707 | 1.32 | 1.05 | 1.13 | 1.1 | 1.2 | 1.74 | 1.05 | 1.05
I fixed | 1.71 | 1.18 | 0.918 | 0.896 | 0.455 | 0.33 | 0.305 | 0.778 | 0.641
K fixed | 0.807 | 0.987 | 0.995 | 1.08 | 1.71 | 3.22 | 2.08 | 1.73 | 1.94
L fixed | 1.29 | 1.59 | 1.06 | 0.823 | 0.799 | 0.412 | 0.307 | 0.809 | 0.72
M fixed | 1.88 | 1.14 | 1.04 | 0.92 | 1.02 | 0.394 | 0.349 | 0.875 | 0.708
N fixed | 0.635 | 1.02 | 0.927 | 0.904 | 1.08 | 0.7 | 0.454 | 0.753 | 0.773
P fixed | 0.361 | 0.56 | 0.835 | 1.39 | 1.06 | 0.558 | 0.688 | 1.09 | 0.991
Q fixed | 0.812 | 0.625 | 0.996 | 0.983 | 0.804 | 0.676 | 0.613 | 0.988 | 0.752
R fixed | 0.935 | 2.32 | 1.03 | 0.99 | 2.23 | 4.89 | 6.97 | 2.32 | 2.79
V fixed | 1.5 | 1.05 | 1.04 | 0.894 | 0.614 | 0.417 | 0.404 | 0.953 | 0.955
W fixed | 0.596 | 0.761 | 0.849 | 1.08 | 0.633 | 0.437 | 0.409 | 0.672 | 0.753
Y fixed | 0.857 | 1.01 | 0.955 | 0.903 | 1.07 | 0.497 | 0.545 | 0.731 | 0.831
pThr fixed | 0.681 | 0.529 | 0.661 | 0.81 | 0.359 | 0.512 | 0.367 | 0.743 | 0.567
pTyr fixed | 0.778 | 0.681 | 0.97 | 0.875 | 0.801 | 0.44 | 0.552 | 0.76 | 0.791
